The record followed here is patent US20110118131A1 (published 2011).

B1: XPA23 Fab, heavy chain P53E (Fab, V domains shown)
VH: EVQLLESGGGLVQPGGSLRLSCAASGFTFSKYFMFWVRQAPGKGLEWVSVISESGGMTRYADSVKGRFTISRDNSKNTLYLQMNSLRAEDTAVYYCARVGYGGNSDYWGQGTLVTVSS
VL: DIQMTQSPSSVSASVGDRLTIICRASQDINRWLAWYQQTPGNAPKLLIHSATSLQSGVPSRFSGSGSGTDFTLTINSLQPEDFATYYCQQADSFPLTFGGGTKVEIK
B2: XPA23 Fab, heavy chain P53K (Fab, V domains shown)
VH: B1 VH with E53K
VL: B1 VL
B3: XPA23 Fab, heavy chain P53F (Fab, V domains shown)
VH: B1 VH with E53F
VL: B1 VL
B4: XPA23 Fab, heavy chain R59N (Fab, V domains shown)
VH: B1 VH with E53P, R59N
VL: B1 VL
B5: XPA23 Fab, heavy chain R59Q (Fab, V domains shown)
VH: B1 VH with E53P, R59Q
VL: B1 VL
B6: XPA23 Fab, heavy chain R59K (Fab, V domains shown)
VH: B1 VH with E53P, R59K
VL: B1 VL
B7: XPA23 Fab, heavy chain P53W (Fab, V domains shown)
VH: B1 VH with E53W
VL: B1 VL
B8: XPA23 Fab, heavy chain P53H (Fab, V domains shown)
VH: B1 VH with E53H
VL: B1 VL
B9: XPA23 Fab, heavy chain P53N (Fab, V domains shown)
VH: B1 VH with E53N
VL: B1 VL
B10: XPA23 Fab, heavy chain P53Q (Fab, V domains shown)
VH: B1 VH with E53Q
VL: B1 VL
B11: XPA23 Fab, heavy chain P53Y (Fab, V domains shown)
VH: B1 VH with E53Y
VL: B1 VL
B12: XPA23 Fab, heavy chain R59D (Fab, V domains shown)
VH: B1 VH with E53P, R59D
VL: B1 VL
B13: XPA23 Fab, heavy chain R59E (Fab, V domains shown)
VH: B1 VH with E53P, R59E
VL: B1 VL
B14: XPA23 Fab, heavy chain R59H (Fab, V domains shown)
VH: B1 VH with E53P, R59H
VL: B1 VL
B15: XPA23 Fab, heavy chain R59F (Fab, V domains shown)
VH: B1 VH with E53P, R59F
VL: B1 VL
B16: XPA23 Fab, heavy chain P53S (Fab, V domains shown)
VH: B1 VH with E53S
VL: B1 VL

Residue numbers refer to the chain shown, from its start. In names and notes the source's numbering stands.

This assay addresses T1, IL-1beta (UniProt P01584 117-269).
T1 construct: also called IL-1β
Briefly: Biacore. On the technique in general: In SPR one partner is held on a chip, and binding of the other changes the refractive index at the surface.
On to B1, for which the “fold difference in affinity vs parental” value amounted to 0.03 fold.
The same measure, in the same setting: the value for B2 was 0.04 fold; that for B3 was 0.05 fold.
Same read-out and setting: under B4 stands 0.86 fold; under B5, 0.86 fold.
For the molecule B6, the “fold difference in affinity vs parental” value is 0.94 fold.
The same measure, in the same setting: under B7 stands 0.05 fold.
Consider B8, for which the binding result was “no binding”.
As for B9, the “fold difference in affinity vs parental” value was found to be 0.06 fold.
The same measure, in the same setting: the value for B10 was 0.03 fold; that for B11 was 0.03 fold.
For B12, the binding result was “no binding”.
Still for that read-out and setting: under B13 stands “no binding”; under B14, “no binding”.
As to B15, the “fold difference in affinity vs parental” value came to 0.92 fold.
For the molecule B16, the “fold difference in affinity vs parental” value worked out at 0.03 fold.
